Measured values reported in US20140377284A1 (BIOCEROX PRODUCTS B V, published 2014).

Tests used:
[1] = target: T1, human CD134 (full-length, on cells) (human, UniProt P43489 29-277); assay: flow cytometry, OX40L 10.0 µg/mL with anti-polyhistidine antibody
T1 construct: also called OX40; TNFRSF4
T1 sequence: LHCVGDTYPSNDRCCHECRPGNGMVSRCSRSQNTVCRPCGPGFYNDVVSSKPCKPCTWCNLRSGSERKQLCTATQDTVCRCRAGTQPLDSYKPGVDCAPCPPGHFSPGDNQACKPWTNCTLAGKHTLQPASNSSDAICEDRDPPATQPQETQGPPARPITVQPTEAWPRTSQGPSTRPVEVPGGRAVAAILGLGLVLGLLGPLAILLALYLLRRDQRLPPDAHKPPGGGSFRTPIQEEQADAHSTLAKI
Protocol: PHA-stimulated (at 10 μg/mL for 1 day; see above) human CD134 expressing T lymphocytes were generated. […] After extensive washing in PBS/BSA/NaN₃, cells were fixed in 2% formaldehyde in PBS/BSA/NaN₃ for 30 minutes at 4° C.

[2] = target: T2, truncated human CD134 'truncated (tc) CRD4' construct (human, UniProt P43489 147-277); assay: flow cytometry, transiently transfected 293-F cells (parental 12H3: binding completely absent on tcCRD4)
T2 construct: also called truncated CRD4
T2 sequence: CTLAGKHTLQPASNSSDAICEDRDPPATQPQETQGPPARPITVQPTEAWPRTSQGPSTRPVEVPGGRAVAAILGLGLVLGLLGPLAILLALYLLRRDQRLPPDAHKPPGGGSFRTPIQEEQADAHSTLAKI
Protocol: (§1) After 48-72 h, surface human CD134 expression on transfected cells was analyzed by FACS analysis. To this end, transfected cells were harvested and put at 1-2×10⁶ cells/mL in ice-chilled PBS/BSA/NaN₃. […] After extensive washing in PBS/BSA/NaN₃, cells were subsequently incubated with 1:200 diluted PE-conjugated goat anti-human IgG (Fcγ specific) antibodies (Jackson ImmunoResearch) for 30 minutes at 4° C. After extensive washing in PBS/BSA/NaN₃, cells were fixed in 2% formaldehyde in PBS/BSA/NaN₃ for 30 minutes at 4° C. Binding of antibodies was measured using flow cytometry (FACSCalibur; BD Biosciences).

[3] = target: T3, recombinant human CD134:human Fcγ (IgG1) fusion protein (human, UniProt P01857-1 100-330 = IgG part, limits assumed); assay: ELISA, plate-bound CD134:Fc 50 ng/well
T3 construct: domain: Fcγ (IgG1); Bought (R&D Systems); also called rhuCD134
Protocol: Ninety six-wells flat-bottom ELISA plates (Corning) were coated with 50 ng/well recombinant human CD134:human Fcγ (IgG1) fusion protein (R&D Systems) in PBS o/n at 4° C. After extensive washing in PBS/0.05% Tween 20, plates were blocked in PBS/0.05% Tween 20/1% BSA fraction V (Roche) for 1 hour at RT. […] After extensive washing in PBS/0.05% Tween 20, binding of antibodies was determined with 1:5000 diluted horseradish peroxidase-conjugated goat anti-mouse (Fcγ specific) antibodies (Jackson ImmunoResearch) or with 1:4000 diluted horseradish peroxidase-conjugated goat anti-human κ-specific antibodies (Southern Biotech) for 1 hour at RT, followed by a ready-to-use solution of TMB substrate (Invitrogen) for colorimetric detection. After adding 1 M H₂SO₄, optical densities were measured at, a wavelength of 450 nm (reference wavelength of 655 nm) using a microplate reader (BioRad).

[4] = target: T3, recombinant human CD134:human Fcγ …; assay: competition ELISA, plate-bound CD134:Fc; competitor biotinylated mouse 12H3 at 20 ng/mL
Protocol: Ninety six-wells flat-bottom ELISA plates (Corning) were coated with 50 ng/well recombinant human CD134:human Fcγ (IgG1) fusion protein (R&D Systems) in PBS o/n at 4° C. After extensive washing in PBS/0.05% Tween 20, plates were blocked in PBS/0.05% Tween 20/1% BSA fraction V (Roche) for 1 hour at RT. […] After adding 1 M H₂SO₄, optical densities were measured at a wavelength of 450 nm (reference wavelength of 655 nm) using a microplate reader (BioRad).

[5] = target: T4, human fibronectin-derived control peptide (extra type III structural domain) (human); assay: peptide ELISA
T4 construct: Synthesized by Pepscan Presto; coated on ELISA plates
T4 peptide: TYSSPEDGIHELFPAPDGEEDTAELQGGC
Protocol: (§2) After adding 1 M […], optical densities was measured at a wavelength of 450 nm (reference wavelength of 655 nm) using a microplate reader (BioRad).
(§3) Ninety six-wells flat-bottom ELISA plates (Corning) were coated with 10 ng/well human CD134-derived peptide (synthesized by Pepscan Presto, Lelystad, The Netherlands), which corresponded to amino acid sequence of truncated CRD3 A1-module-CRD4 subdomain A1 module (see SEQ ID NO. 38) or with 10 ng/well human fibronectin-derived control peptide (synthesized by Pepscan Presto, Lelystad, The Netherlands), which corresponded to amino acid sequence of extra type III structural domain (see SEQ ID NO. 37) in PBS o/n at 4° C. After extensive washing in PBS/0.05% Tween 20, plates were blocked in PBS/0.05% Tween 20/1% BSA fraction V (Roche) for 1 hour at RT. […] After extensive washing in PBS/0.05% Tween 20, binding of antibodies was determined with 1:5000 diluted horseradish peroxidase-conjugated goat anti-human IgG Fcγ-specific antibodies (Jackson ImmunoResearch) for 1 hour at RT, followed by a ready-to-use solution of TMB substrate (Invitrogen) for colorimetric detection. After adding 1 M H₂SO₄, optical densities was measured at a wavelength of 450 nm (reference wavelength of 655 nm) using a microplate reader (BioRad).

[6] = target: T5, human CD134-derived peptide (truncated CRD3 A1-module-CRD4 subdomain A1-module) (human); assay: peptide ELISA, 10 ng/well peptide coated
T5 construct: Synthesized by Pepscan Presto; coated on ELISA plates
T5 peptide: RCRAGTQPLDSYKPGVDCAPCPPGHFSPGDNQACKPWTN
Protocol: as §2, §3

[7] = target: T1, human CD134 (full-length, on cells); assay: competition flow cytometry, stable CD134 293-F clone no. 5; competitor biotinylated mouse 12H3 at 700 ng/mL
Protocol: Full-length human CD134 (SEQ ID NO1) was re-cloned in a pcDNA3.1-derived expression plasmid (see Example 11 (c) above). […] After extensive washing in PBS/BSA/NaN₃, cells were fixed in 2% formaldehyde in PBS/BSA/NaN₃ for 30 minutes at 4° C.

[8] = target: T1, human CD134 (full-length, on cells); assay: flow cytometry, stable CD134 293-F clone no. 23
Protocol: (§4) Full-length human CD134 (SEQ ID NO. 1) was re-cloned in a pcDNA3.1-derived expression plasmid (see Example 11 (d) below). […] After extensive washing in PBS/BSA/NaN₃, cells were subsequently incubated with 1:200 diluted PE-conjugated goat anti-mouse IgG (Fcγ specific) antibodies (Jackson ImmunoResearch) or with 1:200 diluted PE-conjugated goat anti-human IgG (Fcγ specific) antibodies (Jackson ImmunoResearch) for 30 minutes at 4° C. After extensive washing in PBS/BSA/NaN₃, cells were fixed in 2% formaldehyde in PBS/BSA/NaN₃ for 30 minutes at 4° C. Binding of antibodies was measured using flow cytometry (FACSCalibur; BD Biosciences).

[9] = target: T1, human CD134 (full-length, on cells); assay: flow cytometry, PHA-stimulated human CD4+ T lymphocytes (data not shown)
Protocol: PHA-stimulated (at 10 μg/mL for 1 day; see above) human CD134 expressing T lymphocytes were generated. […] After extensive washing in PBS/BSA/NaN₃, cells were subsequently incubated with 1:50 diluted FITC-conjugated mouse anti-human IgG4 antibodies (Sigma) for 30 minutes at 4° C. […] After extensive washing in PBS/BSA/NaN₃, cells were fixed in 2% formaldehyde in PBS/BSA/NaN₃ for 30 minutes at 4° C. Binding of antibodies was measured using flow cytometry (FACSCalibur; BD Biosciences).

[10] = target: T6, truncated human CD134 'CRD4' construct (human, UniProt P43489 127-277); assay: flow cytometry, transiently transfected 293-F cells, 20.0 µg/mL
T6 construct: also called truncated human CD134 variant that lacked CRD1-CRD2-truncated CRD3 A1-module
T6 sequence: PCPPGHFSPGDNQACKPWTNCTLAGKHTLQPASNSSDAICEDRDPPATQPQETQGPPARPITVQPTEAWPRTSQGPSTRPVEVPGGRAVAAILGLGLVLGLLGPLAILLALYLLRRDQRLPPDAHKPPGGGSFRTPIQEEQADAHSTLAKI
Protocol: as §1, with “48” for “48-72”, “PBS/BSA/NaN₃ supplemented with 50 μg/mL purified human IgG (Sigma; blocking Fey receptors).” for “PBS/BSA/NaN₃.”, “goat anti-mouse IgG (Fcγ specific) antibodies (Jackson ImmunoResearch) or with 1:200 diluted PE-conjugated goat” for “goat”, “anti-human IgG (Fcγ specific) antibodies (Jackson ImmunoResearch) for 30 minutes at 4° C. […] After extensive washing in PBS/BSA/NaN₃, cells were subsequently incubated with 1:200 diluted PE-conjugated goat anti-mouse” for “anti-human”

[11] = target: T7, truncated human CD134 'CRD3' construct (human, UniProt P43489 108-277); assay: as above
T7 construct: also called truncated human CD134 variant that lacked CRD1-CRD2
T7 sequence: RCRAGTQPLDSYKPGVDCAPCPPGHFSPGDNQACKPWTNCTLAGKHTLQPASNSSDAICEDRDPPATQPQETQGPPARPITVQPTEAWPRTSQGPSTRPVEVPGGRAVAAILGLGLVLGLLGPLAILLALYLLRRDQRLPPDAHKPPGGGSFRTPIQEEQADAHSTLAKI
Protocol: as §1, with “48” for “48-72”, “PBS/BSA/NaN₃ supplemented with 50 μg/mL purified human IgG (Sigma; blocking Fey receptors).” for “PBS/BSA/NaN₃.”, “goat anti-mouse IgG (Fcγ specific) antibodies (Jackson ImmunoResearch) or with 1:200 diluted PE-conjugated goat” for “goat”, “anti-human IgG (Fcγ specific) antibodies (Jackson ImmunoResearch) for 30 minutes at 4° C. […] After extensive washing in PBS/BSA/NaN₃, cells were subsequently incubated with 1:200 diluted PE-conjugated goat anti-mouse” for “anti-human”

[12] = target: T1, human CD134 (full-length, on cells); assay: flow cytometry, stable CD134 293-F clone no. 5
Protocol: as §4

B1: polyhistidine-tagged recombinant human OX40 ligand (ligand, UniProt P23510 51-183, looked up)
chain: QVSHRYPRIQSIKVQFTEYKKEKGFILTSQKEDEIMKVQNNSVIINCDGFYLISLKGYFSQEVNISLHYQKDEEPLFQLKKVRSVNSLMVASLTYKDKVYLNVTTDNTSLDDFHVNGGELILIHQNPGEFCVL
notes: Bought; used together with mouse anti-polyhistidine antibody (clone AD1.1.10); also called CD252; not shown: polyhistidine tag
binding result [1]: binds

B2: chimeric human IgG4κ anti-human CD134 antibody clone 12H3 (antibody, V domains shown)
VH: EVQLQQSGPELVKPGASVKISCKTSGYTFKDYTMHWVKQSHGKSLEWIGGIYPNNGGSTYNQNFKDKATLTVDKSSSTAYMEFRSLTSEDSAVYYCARMGYHGPHLDFDVWGAGTTVTVSP
VL: DIVMTQSHKFMSTSLGDRVSITCKASQDVGAAVAWYQQKPGQSPKLLIYWASTRHTGVPDRFTGGGSGTDFTLTISNVQSEDLTDYFCQQYINYPLTFGGGTKLEIKR
notes: Murine V-regions linked to human IgG4 and human kappa constant regions; also called chimeric 12H3 (human IgG4/κ)
binding result [2]: no binding (tested: 20.0 µg/mL) | EC50 [3]: ~0.1 µg/mL | IC50 [4]: ~0.75 µg/mL | binding result [5]: no binding (tested: 50.0 µg/mL) | binding result [6]: binds | IC50 [7]: ~3.5 µg/mL | EC50 [8]: > 0.2 µg/mL

B3: chimeric human IgG1κ anti-human CD134 monoclonal antibody clone 12H3 (antibody, V domains shown)
VH: B2 VH
VL: B2 VL
notes: Human IgG1/kappa constant regions
binding result [2]: no binding (tested: 20.0 µg/mL)

B4: chimeric human IgG4κ anti-human CD134 antibody clone 20E5 (antibody, V domains shown)
VH: EVQLQQSGPELVKPGASVKMSCKASGYTFTSYVMHWVKQKPGQGLEWIGYINPYNDGTKYNEKFKGKATLTSDKSSSTAYMELSSLTSEDSAVYYCANYYGSSLSMDYWGQGTSVTVSS
VL: DIQMTQTTSSLSASLGDRVTISCRASQDISNYLNWYQQKPDGTVKLLIYYTSRLHSGVPSRFSGSGSGTDYSLTISNLEQEDIATYFCQQGNTLPWTFGGGTKLEIKR
notes: Murine V-regions linked to human IgG4 and human kappa constant regions
EC50 [3]: ~0.1 µg/mL | EC50 [9]: ~1 µg/mL

B5: humanized IgG4κ anti-human CD134 antibody clone 20E5 version 20E5_VL1VH1 (antibody, V domains shown)
VH: QVQLVQSGAEVKKPGASVKVSCKASGYTFTSYVMHWVRQAPGQRLEWMGYINPYNDGTKYNEKFKGRVTITSDTSASTAYMELSSLRSEDTAVYYCANYYGSSLSMDYWGQGTLVTVSS
VL: DIQMTQSPSSLSASVGDRVTITCRASQDISNYLNWYQQKPGKAPKLLIYYTSRLHSGVPSRFSGSGSGTDYTLTISSLQPEDFATYYCQQGNTLPWTFGQGTKVEIKR
notes: Stabilized human IgG4 (Angal et al.)/κ; also called 20E5_VL1H1; VL1H1
EC50 [3]: ~0.15 µg/mL | binding result [10]: binds | binding result [11]: binds | binding result [12]: binds
